# Laboratory results from patent publication US20160052996A1 (NEURIMMUNE, published 2016).
# B1: NI-307.18E12 (antibody, V domains shown)
# VH: QVQLQQWGAGLLKPSETLSLTCAVYGDSFSGFFWAWIRQTPGTGLEWIGEIQHGGSPTYNPSFESRLTISTDASKSQVSLKMTSVTVTDTAIYYCARCIRGKYGSGSLQLWSQGTLVTVSS
# VL: DIQLTQSPSFLSASVGDRVTITCRASQDINYHLAWYRQKPGKAPDLLIHSAHTLHIGVSSRFSGSGSGTEFTLTIHTLQPEDFATYYCHQPKTFPPTFGGGTKVDIK
# B2: NI-307.18F4A (antibody, V domains shown)
# VH: EVQLVESGGGLVKPGGSLRLSCAASGFTFTNYYMTWVRQAPGKGLEWVSYITGGGSTTYYADSVTGRFTISRDNAKNSLYLQMSSLRVEDTAVYYCARGRGYPDNWFDPWGQGTLVTVSS
# VL: SYVLTQPPSVSVSPGQTARITCSGDALPKQYVYWYQQKPGQAPVLMIYKDAERPSGIPDRFSGSSSGTTVTLTISGVQAEDEADYYCQSTDISGAAVVFGGGTKLTVL
# B3: NI-307.19F8 (antibody, V domains shown)
# VH: EVQLVESGGGLVKPGGSLRLSCAASGFTFSSYYMNWVRQAPGKGLEWVSSISSSSSYIYYADSVKGRFTISRDNAKNSLYLQMNSLTAEDTAVYYCARDPRLQLWFMFDYWGQGTLVTVSS
# VL: QPVLTQPPSASASLGASVTLTCTLSSGYSNYKVDWYQQRPGEGPRFVMRVGTGGIVGSKGDGIPDRFSVLGSGLNRYLTIKDIQEEDESDYHCGADHGSGSNFVYVFGTGTKVTVL
# B4: NI-307.61D11 (antibody, V domains shown)
# VH: EVQLVQSGAEVKKPGASVKVSCKTSGYTFIGHYMQWVRQVPGQGFEWMGWINPNTGTTKYALKFKDRVTVTRDTSTATVYMEFHGLTSDDTAVYYCARASAYQLANYDYWGQGTLVTVSS
# VL: QSALTQPASVSGSPGQSITISCAGTSNDVGDDDFVSWYQHQPGKAPRLMIYEVTNRPSGVSTRFSGSKSGNTASLTISGLQAEDEGDYYCMSYTKNSALGYVFGGGTKVTVL
# B5: NI-307.98D3 (antibody, V domains shown)
# VH: EVQLVESGGGVVQPGRSLRLSCAASGFTFSSSAMHWVRQAPGKGLEWVAVISYDGNNQLYADSVKGRLTISRDNSKNALYLQLNSLRTEDTAVYFCARDGGGYSFGTYFFDFWGQGTLVTVSS
# VL: DIQMTQSPSSLSASVGERVTITCRASQRISNYLNWYQQKPGKAPKLLIYAASTLQSGVPSRFSGSGSGTDFTLTISSLQPEDFATYYCQQSYSSPPTFGPGTKVDIK
# B6: NI-307.25G10 (antibody, V domains shown)
# VH: EVQLVESGGGLVQPGGSLRLSCVASGIIFKDYDFHWVRQVKEKGLEWVSAIGTAGDPYYAASVKGRFTVSRENGKNSVYLRMNNVGAGDTALYYCTSGNYFDRGSFRPSAFDMWGQGTMVTVSS
# VL: EIVLTQSPGTLSLSPGERATLSCWASQSVSSNYLAWYQHKPGQAPRLLIFRASRRATDIPERFSAGGSGTDFTLTISRLEAEDSAVYYCQEYGSAPPASITFGQGTRLEIK
# B7: NI-307.26E10 (antibody, V domains shown)
# VH: EVQLVESGGGLVLPGGSLRLSCAVSGFTVRNEYMRWARQAPGRGLEWVSVIYRDGQTHHADTVKGRFDVSKDTSKNTMYLQMHNLRVDDTAIYYCARGHYGPWGQGTLVTVSS
# VL: DIQMTQSPSTLPASVGDRVTITCRASQSINNWLAWYQQKPGKAPNLLIYDASNLETGVPSRFSGSGSGTEFTLTISSLQPDDFATYYCQQYNSHSHTWTFGQGTKVEIK
# B8: NI-307.44F6B (antibody, V domains shown)
# VH: EVQLVESGGSVVRPGGSLRLACEVSGLRFDDFAMSWVRQVPGKGLEWIAGIFWNSGGTLYADSVKGRFTISRDNAENSLYLQMNSLRAEDTALYRCVRGRSHAAYYGMDVWGKGTTVTVSS
# VL: EIVLTQSPLSLPVTPGEPASISCRSSQSLLHSNGYNYLDWYLQKPGQSPQLLIYLGSNRASGVPDRFSGSGSGTDFTLTISRVEAEDVGIYYCMQALQNALAFGGGTKLEIK
# B9: NI-307.57D5 (antibody, V domains shown)
# VH: EVQLVESGGGLAQPGGSLRLSCAGSGFTLSDFAMSWVRRAPGKGLEWVSSLTPSGRNSFYSDSVKGRFTISRDNWKNTLYLEMNLLRPEDTAVYYCARPGAPKNSDSKYSYVRVDFQHWGQGTLVTVSS
# VL: NFMLTQPHSVSESPGRTVTISCTRSSGSIANNFVQWYQHRPGSAPTTLIYEDDQRPSGVPDRFSGSVDSFSNSASLTISGLKTEDEADYFCQSYDNHNWVFGGGTTLTVL
# B10: NI-307.78C3 (antibody, V domains shown)
# VH: QVQLQESGPGLVKPSGTLSLTCTVSGGSISGRIWWSWVRQPPGKGLEWIGEIYHSGSTNYSPSLRGRVTISVDTSKQHFSLKMTSVTAADTAMYYCVRGELALGFDSWGQGTLVTVSS
# VL: QSALTQPPSASGSPGQSVTISCTGTSSDVGGYNSVSWYQQHPRRAPKLMIYEVSKRPSGVPDRFSGSKSGNTASLTVSGLQADDEAHYYCSSYAGSNNLVFGGGTMLTVL
# B11: NI-307.5H3 (antibody, V domains shown)
# VH: QVQLQESGPGLLKPLGTLSLICDVSGDSISSSNWWSWVRQSPRKGLEWIGEIYHSGRTNYNPSLTNRVTISVDKSKNQFSLNLNSVTAADTGVYYCARWDYYYNNDYYIRGFDIWGQGTMVTVSS
# VL: EIVLTQSPGILSLSPGERATLSCRASQSVDSNYLAWYQQKPGQAPRLLIYSTSTRAAGVPDRFSGSGSGTDFALTISGLEPEDFAVYYCQQWGGSPPITFGQGTRLEIK
# B12: NI-307.24C6 (antibody, V domains shown)
# VH: QLQLQESGPGLVKPSGTLSLICVVSGSSIRSNIWWWNWVRQSPGKGLEWIGEIYHSGSTNYSPSLKSRVTMSVDNSKNQFSLKMSSVTAADTAVYFCAINTRTSISGVLYDTFDVWGQGTMVTVSS
# VL: EIVLTQSPATLSLSSGERATLSCRASQSVSGYLAWYQQKPGQAPRLLIYDGSNRATGIPARFSGSGSGTDFTLTISSLEPEDFAVYYCQHRSNWPMYTFGQGTKLEIK
# B13: NI-307.58C7 (antibody, V domains shown)
# VH: EVQLVESGGGLVKPGGSLRLSCAASGFTFSDYYVNWIRQAPGKGLEWVACISSSGRTIHYADSVKGRFTISRDNAKNSLYLQMNSLRAEDTAFYYCARDLDKAATGRPYFDYWGQGTLVTVSS
# VL: not shown
# Target: T1, JCV VP1 VLP (JC virus (JCV), Mad-1 strain, UniProt P03089 1-354)
# T1 construct: also called JCV VP1 VLPs; JCV VP1 (coating with reassociation buffer)
# Assay: direct ELISA, plate coated with antigen at 5 µg/ml in reassociation buffer (VLP); EC50 by non-linear regression (GraphPad Prism)
row,Binder,EC50
1,B1,19.9 nM
2,B2,55 nM
3,B3,6.68 nM
4,B4,17.7 nM

# Target: JCV (JC virus produced by infected SVG-A cells) (JC virus (JCV), UniProt P03089 1-354)
# Assay: cell-based or functional assay
row,Binder,IC50 of neutralization of the JCV infection of SVG-A cells
1,B5,0.8 ng/mL

# Target: T1, JCV VP1 VLP
# Assay: direct ELISA, plate coated with antigen at 5 µg/ml in reassociation buffer (VLP); EC50 by non-linear regression (GraphPad Prism)
# Remark: another data set of the same source
row,Binder,EC50
1,B5,0.00057 nM

# Target: T1, JCV VP1 VLP
# Assay: direct ELISA
row,Binder,EC50
1,B6,0.509 nM
2,B7,14.9 nM
3,B8,0.083 nM
4,B9,57 nM
5,B10,0.932 nM
6,B11,1.16 nM
7,B12,2.84 nM

# Target: T2, BSA (Sigma-Aldrich) (bovine, UniProt P02769 25-607)
# T2 construct: also called bovine serum albumin
# T2 sequence (P02769 25-607 limits assumed): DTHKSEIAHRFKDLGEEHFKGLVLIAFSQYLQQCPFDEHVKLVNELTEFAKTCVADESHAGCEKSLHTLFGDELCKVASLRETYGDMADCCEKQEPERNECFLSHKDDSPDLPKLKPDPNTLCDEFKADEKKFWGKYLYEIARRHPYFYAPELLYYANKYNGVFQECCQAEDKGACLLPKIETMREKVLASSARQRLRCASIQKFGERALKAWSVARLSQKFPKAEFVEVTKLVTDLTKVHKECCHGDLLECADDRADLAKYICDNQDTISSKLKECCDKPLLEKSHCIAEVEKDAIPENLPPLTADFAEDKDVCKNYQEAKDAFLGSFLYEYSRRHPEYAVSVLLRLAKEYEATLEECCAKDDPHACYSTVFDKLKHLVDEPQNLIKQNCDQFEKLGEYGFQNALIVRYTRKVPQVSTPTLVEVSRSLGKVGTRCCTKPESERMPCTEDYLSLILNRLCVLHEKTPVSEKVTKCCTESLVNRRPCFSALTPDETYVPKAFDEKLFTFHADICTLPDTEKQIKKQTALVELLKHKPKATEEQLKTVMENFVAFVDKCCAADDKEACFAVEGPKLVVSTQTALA
# Assay: direct ELISA
row,Binder,binding result
1,B1,no binding
2,B2,no binding
3,B3,no binding
4,B4,no binding
5,B6,no binding
6,B7,no binding
7,B8,no binding
8,B9,no binding
9,B10,no binding
10,B11,no binding
11,B12,no binding

# Target: T3, VP1 GCN (N74S R75K T128A L158V K345R Q350deletion T351deletion) (JC virus (JCV), UniProt P03089 1-354)
# T3 construct: whole, on cells
# Assay: flow cytometry, transfected 293TT cells
row,Binder,binding result
1,B13,binds

# Target: T4, JCV VP2 protein (Bioclone Inc) (JC virus (JCV), UniProt P03095 1-344)
# T4 sequence (looked up): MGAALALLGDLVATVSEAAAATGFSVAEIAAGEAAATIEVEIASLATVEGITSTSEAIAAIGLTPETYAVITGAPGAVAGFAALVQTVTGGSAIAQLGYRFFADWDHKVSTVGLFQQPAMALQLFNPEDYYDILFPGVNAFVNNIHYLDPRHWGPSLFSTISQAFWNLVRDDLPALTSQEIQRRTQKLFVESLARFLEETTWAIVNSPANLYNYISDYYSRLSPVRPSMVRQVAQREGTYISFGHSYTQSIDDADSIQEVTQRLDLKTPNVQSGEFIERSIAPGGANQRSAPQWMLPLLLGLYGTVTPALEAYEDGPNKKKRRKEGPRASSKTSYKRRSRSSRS
# Assay: direct ELISA, antigens coated at 1 µg/mL; bar groups labelled 100 nM, 20 nM, 4 nM, 0.8 nM
row,Binder,binding result
1,B3,no binding (tested: 100 nM)
2,B6,no binding (tested: 100 nM)
3,B7,no binding (tested: 100 nM)

# Target: T5, JCV VP3 protein (Bioclone Inc) (JC virus (JCV), UniProt P03095 120-344)
# T5 sequence: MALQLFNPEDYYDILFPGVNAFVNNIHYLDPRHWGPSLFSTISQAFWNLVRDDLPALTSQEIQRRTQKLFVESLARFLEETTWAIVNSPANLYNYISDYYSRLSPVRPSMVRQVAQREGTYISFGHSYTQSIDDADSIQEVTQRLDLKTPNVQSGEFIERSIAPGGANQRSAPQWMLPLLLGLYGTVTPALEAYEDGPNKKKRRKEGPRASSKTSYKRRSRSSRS
# Assay: as above
row,Binder,binding result
1,B3,no binding (tested: 100 nM)
2,B6,no binding (tested: 100 nM)
3,B7,no binding (tested: 100 nM)
